These results are taken from article PMC12753876, “The CRY1-HsF predicted interaction interface serves as a molecular platform for bioengineering or selecting modulating mutants” (Frontiers in Plant Science, 2025).

Experiment in all cases: two-hybrid; CRY1 as prey in pGADT7 (AD), HsF as bait in pGBKT7 (BD), co-transformed into yeast Y187; liquid beta-galactosidase assay with CPRG, Miller units; not detected (ND) if OD578 <0.01 after 3 h of color development
What all share (conditions): partners not purified

Assay [1] has as its target T1, HsFA3^K177A in pGBKT7 (BD) (Arabidopsis thaliana, UniProt Q8GYY1 1-412, K177A).
T1 construct: source: yeast two-hybrid fusion (yeast Y187)

Assay [2] concerns the target T2, HsFA7a in pGBKT7 (BD) (Arabidopsis thaliana, UniProt Q9SV12 1-272).
T2 construct: also called HsFA7^WT; source: yeast two-hybrid fusion (yeast Y187)

In assay [3] the target is T3, HsFA3^WT in pGBKT7 (BD) (Arabidopsis thaliana, UniProt Q8GYY1 1-412).
T3 construct: also called AtHsFA3; source: yeast two-hybrid fusion (yeast Y187)
T3 sequence (Q8GYY1 whole entry, the tested form may be a part): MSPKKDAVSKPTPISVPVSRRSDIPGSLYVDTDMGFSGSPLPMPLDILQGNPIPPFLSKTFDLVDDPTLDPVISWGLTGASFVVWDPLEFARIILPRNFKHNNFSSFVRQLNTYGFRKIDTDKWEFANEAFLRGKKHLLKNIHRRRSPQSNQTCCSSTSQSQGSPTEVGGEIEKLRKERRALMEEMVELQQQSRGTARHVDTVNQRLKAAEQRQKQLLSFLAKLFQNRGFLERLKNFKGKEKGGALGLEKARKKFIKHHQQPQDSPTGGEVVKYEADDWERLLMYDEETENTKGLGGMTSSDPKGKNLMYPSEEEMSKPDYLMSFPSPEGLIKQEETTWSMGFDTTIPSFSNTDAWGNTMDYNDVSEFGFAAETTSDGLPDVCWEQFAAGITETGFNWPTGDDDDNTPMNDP

Assay [4] concerns the target T4, HsFA3^K174A in pGBKT7 (BD) (Arabidopsis thaliana, UniProt Q8GYY1 1-412, K174A).
T4 construct: source: yeast two-hybrid fusion (yeast Y187)

Assay [5] has as its target T5, HsFA3^E188A in pGBKT7 (BD) (Arabidopsis thaliana, UniProt Q8GYY1 1-412, E188A).
T5 construct: Not in the list of plasmids of the methods; source: yeast two-hybrid fusion (yeast Y187)

Assay [6] has as its target T6, HsFC1^WT in pGBKT7 (BD) (Arabidopsis thaliana, UniProt Q9LV52 1-330).
T6 construct: source: yeast two-hybrid fusion (yeast Y187)

The target in assay [7] is T7, HsFA1d^WT in pGBKT7 (BD) (Arabidopsis thaliana, UniProt Q9LQM7 1-485).
T7 construct: source: yeast two-hybrid fusion (yeast Y187)
T7 sequence (Q9LQM7 whole entry, the tested form may be a part): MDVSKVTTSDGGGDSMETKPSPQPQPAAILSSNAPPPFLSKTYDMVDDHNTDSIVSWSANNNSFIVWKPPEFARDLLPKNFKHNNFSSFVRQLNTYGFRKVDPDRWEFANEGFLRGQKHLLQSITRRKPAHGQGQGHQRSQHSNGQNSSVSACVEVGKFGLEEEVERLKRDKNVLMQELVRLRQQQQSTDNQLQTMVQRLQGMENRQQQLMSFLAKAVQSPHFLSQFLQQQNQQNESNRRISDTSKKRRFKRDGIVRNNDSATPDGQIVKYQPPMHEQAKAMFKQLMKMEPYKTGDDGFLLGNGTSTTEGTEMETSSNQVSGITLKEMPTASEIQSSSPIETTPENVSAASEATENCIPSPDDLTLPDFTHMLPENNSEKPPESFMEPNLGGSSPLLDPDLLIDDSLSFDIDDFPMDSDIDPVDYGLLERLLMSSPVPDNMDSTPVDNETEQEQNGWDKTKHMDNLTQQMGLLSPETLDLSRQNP

In assay [8] the target is T8, HsFA3^E173A in pGBKT7 (BD) (Arabidopsis thaliana, UniProt Q8GYY1 1-412, E173A).
T8 construct: source: yeast two-hybrid fusion (yeast Y187)
T8 sequence (Q8GYY1 whole entry E173A, the tested form may be a part): as the sequence (Q8GYY1 whole entry, the tested form may be a part) above, with E173A counted along it

Assay [9] addresses T9, HsFA6b^WT in pGBKT7 (BD) (Arabidopsis thaliana, UniProt Q9LUH8 1-406).
T9 construct: source: yeast two-hybrid fusion (yeast Y187)

Assay [10] has as its target T10, HsFA6a^WT in pGBKT7 (BD) (Arabidopsis thaliana, UniProt Q1PDN3 1-282).
T10 construct: source: yeast two-hybrid fusion (yeast Y187)
T10 sequence (looked up): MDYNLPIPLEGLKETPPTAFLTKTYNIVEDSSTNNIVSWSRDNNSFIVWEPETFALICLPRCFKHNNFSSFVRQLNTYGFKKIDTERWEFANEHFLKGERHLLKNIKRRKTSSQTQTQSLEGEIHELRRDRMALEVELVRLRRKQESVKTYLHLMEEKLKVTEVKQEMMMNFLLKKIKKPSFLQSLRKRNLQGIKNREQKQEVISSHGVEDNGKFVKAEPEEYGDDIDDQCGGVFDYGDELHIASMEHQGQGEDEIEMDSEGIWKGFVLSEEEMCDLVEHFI

Assay [11] deals with T11, HsFA3^E178A in pGBKT7 (BD) (Arabidopsis thaliana, UniProt Q8GYY1 1-412, E178A).
T11 construct: source: yeast two-hybrid fusion (yeast Y187)
T11 sequence (Q8GYY1 whole entry E178A, the tested form may be a part): as the sequence (Q8GYY1 whole entry, the tested form may be a part) above, with E178A counted along it

Assay [12] addresses T12, HsFC1^R129E in pGBKT7 (BD) (Arabidopsis thaliana, UniProt Q9LV52 1-330, R129E).
T12 construct: source: yeast two-hybrid fusion (yeast Y187)

Bounds are passed on as bounds.

T5 sequence (Q8GYY1 whole entry E188A, the tested form may be a part): as the sequence (Q8GYY1 whole entry, the tested form may be a part) above, with E188A counted along it
T1 sequence (Q8GYY1 whole entry K177A, the tested form may be a part): as the sequence (Q8GYY1 whole entry, the tested form may be a part) above, with K177A counted along it
T12 sequence (Q9LV52 whole entry R129E, the tested form may be a part): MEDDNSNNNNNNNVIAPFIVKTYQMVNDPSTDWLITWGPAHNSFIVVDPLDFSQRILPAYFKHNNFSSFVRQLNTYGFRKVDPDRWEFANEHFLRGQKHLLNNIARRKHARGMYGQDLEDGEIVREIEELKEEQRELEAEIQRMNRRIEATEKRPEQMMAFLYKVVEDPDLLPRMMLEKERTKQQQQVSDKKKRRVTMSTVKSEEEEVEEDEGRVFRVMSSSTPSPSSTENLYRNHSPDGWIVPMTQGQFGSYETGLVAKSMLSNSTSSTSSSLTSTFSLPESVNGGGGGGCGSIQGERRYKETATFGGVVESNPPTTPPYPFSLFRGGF
T9 sequence (Q9LUH8 whole entry, the tested form may be a part): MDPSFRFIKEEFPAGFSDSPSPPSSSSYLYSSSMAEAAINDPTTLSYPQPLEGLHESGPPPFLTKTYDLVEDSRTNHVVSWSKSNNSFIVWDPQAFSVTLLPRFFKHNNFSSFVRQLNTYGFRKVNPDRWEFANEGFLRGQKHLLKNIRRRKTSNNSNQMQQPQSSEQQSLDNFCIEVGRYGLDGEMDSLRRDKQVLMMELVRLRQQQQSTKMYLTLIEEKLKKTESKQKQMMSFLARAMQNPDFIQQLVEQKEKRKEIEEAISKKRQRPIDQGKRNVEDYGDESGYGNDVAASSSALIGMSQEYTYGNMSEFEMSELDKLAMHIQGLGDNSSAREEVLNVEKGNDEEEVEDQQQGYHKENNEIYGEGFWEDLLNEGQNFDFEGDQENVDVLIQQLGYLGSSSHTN
T4 sequence (Q8GYY1 whole entry K174A, the tested form may be a part): as the sequence (Q8GYY1 whole entry, the tested form may be a part) above, with K174A counted along it
T2 sequence (Q9SV12 whole entry, the tested form may be a part): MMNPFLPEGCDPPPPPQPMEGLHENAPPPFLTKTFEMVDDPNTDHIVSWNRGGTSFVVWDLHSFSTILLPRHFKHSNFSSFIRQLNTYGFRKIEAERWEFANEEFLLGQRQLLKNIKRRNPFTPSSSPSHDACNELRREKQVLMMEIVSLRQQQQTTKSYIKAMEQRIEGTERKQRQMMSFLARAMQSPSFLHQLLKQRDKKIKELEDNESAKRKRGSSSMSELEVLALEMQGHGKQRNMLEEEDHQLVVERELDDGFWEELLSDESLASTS
T6 sequence (Q9LV52 whole entry, the tested form may be a part): as the sequence (Q9LV52 whole entry R129E, the tested form may be a part) above, with E129R counted along it

B1: CRY1^(PHR WT) in pGADT7 (AD) (domain or fragment, Arabidopsis thaliana, UniProt Q43125 1-508, looked up)
chain: MSGSVSGCGSGGCSIVWFRRDLRVEDNPALAAAVRAGPVIALFVWAPEEEGHYHPGRVSRWWLKNSLAQLDSSLRSLGTCLITKRSTDSVASLLDVVKSTGASQIFFNHLYDPLSLVRDHRAKDVLTAQGIAVRSFNADLLYEPWEVTDELGRPFSMFAAFWERCLSMPYDPESPLLPPKKIISGDVSKCVADPLVFEDDSEKGSNALLARAWSPGWSNGDKALTTFINGPLLEYSKNRRKADSATTSFLSPHLHFGEVSVRKVFHLVRIKQVAWANEGNEAGEESVNLFLKSIGLREYSRYISFNHPYSHERPLLGHLKFFPWAVDENYFKAWRQGRTGYPLVDAGMRELWATGWLHDRIRVVVSSFFVKVLQLPWRWGMKYFWDTLLDADLESDALGWQYITGTLPDSREFDRIDNPQFEGYKFDPNGEYVRRWLPELSRLPTDWIHHPWNAPESVLQAAGIELGSNYPLPIVGLDEAKARLHEALSQMWQLEAASRAAIENGSEE
notes: cryptochrome 1 (AtCRY1), Arabidopsis thaliana, PHR domain, residues 1-508; also called CRY1 PHR domain; source: yeast two-hybrid fusion (yeast Y187)
B1: the “decrease of Y2H interaction relative to WT” value worked out at 62% in [1], 64% in assay [4], 61% in [5] and 29% in assay [8]. Moreover, the “beta-galactosidase activity (Miller units)” value in assay [2] was 25 Miller units; in assay [3], 250 Miller units; in [6] it was less than 0.5 Miller units; in [7], 7 Miller units; in assay [9], 45 Miller units; in [10], less than 0.5 Miller units. Also, the “fold change of Miller units relative to WT” value in assay [11] was found to be 2 fold. Also, the “fold increase of Y2H interaction relative to WT” value in assay [12] was roughly 10 fold.

B2: CRY1^(PHR R435A) in pGADT7 (AD) (domain or fragment, Arabidopsis thaliana, UniProt Q43125 1-508, looked up)
chain: MSGSVSGCGSGGCSIVWFRRDLRVEDNPALAAAVRAGPVIALFVWAPEEEGHYHPGRVSRWWLKNSLAQLDSSLRSLGTCLITKRSTDSVASLLDVVKSTGASQIFFNHLYDPLSLVRDHRAKDVLTAQGIAVRSFNADLLYEPWEVTDELGRPFSMFAAFWERCLSMPYDPESPLLPPKKIISGDVSKCVADPLVFEDDSEKGSNALLARAWSPGWSNGDKALTTFINGPLLEYSKNRRKADSATTSFLSPHLHFGEVSVRKVFHLVRIKQVAWANEGNEAGEESVNLFLKSIGLREYSRYISFNHPYSHERPLLGHLKFFPWAVDENYFKAWRQGRTGYPLVDAGMRELWATGWLHDRIRVVVSSFFVKVLQLPWRWGMKYFWDTLLDADLESDALGWQYITGTLPDSREFDRIDNPQFEGYKFDPNGEYVRAWLPELSRLPTDWIHHPWNAPESVLQAAGIELGSNYPLPIVGLDEAKARLHEALSQMWQLEAASRAAIENGSEE
notes: cryptochrome 1 (AtCRY1), Arabidopsis thaliana, PHR domain, residues 1-508; also called CRY1^R435A; source: yeast two-hybrid fusion (yeast Y187)
With B2, the “decrease of Y2H interaction relative to WT” value in [3] is 12%.

B3: CRY1^(PHR K332A) in pGADT7 (AD) (domain or fragment, Arabidopsis thaliana, UniProt Q43125 1-508, looked up)
chain: MSGSVSGCGSGGCSIVWFRRDLRVEDNPALAAAVRAGPVIALFVWAPEEEGHYHPGRVSRWWLKNSLAQLDSSLRSLGTCLITKRSTDSVASLLDVVKSTGASQIFFNHLYDPLSLVRDHRAKDVLTAQGIAVRSFNADLLYEPWEVTDELGRPFSMFAAFWERCLSMPYDPESPLLPPKKIISGDVSKCVADPLVFEDDSEKGSNALLARAWSPGWSNGDKALTTFINGPLLEYSKNRRKADSATTSFLSPHLHFGEVSVRKVFHLVRIKQVAWANEGNEAGEESVNLFLKSIGLREYSRYISFNHPYSHERPLLGHLKFFPWAVDENYFAAWRQGRTGYPLVDAGMRELWATGWLHDRIRVVVSSFFVKVLQLPWRWGMKYFWDTLLDADLESDALGWQYITGTLPDSREFDRIDNPQFEGYKFDPNGEYVRRWLPELSRLPTDWIHHPWNAPESVLQAAGIELGSNYPLPIVGLDEAKARLHEALSQMWQLEAASRAAIENGSEE
notes: cryptochrome 1 (AtCRY1), Arabidopsis thaliana, PHR domain, residues 1-508; source: yeast two-hybrid fusion (yeast Y187)
In the case of B3, the “decrease of Y2H interaction relative to WT” value in [3] came to 56%.

B4: CRY1^(PHR W352A) in pGADT7 (AD) (domain or fragment, Arabidopsis thaliana, UniProt Q43125 1-508, looked up)
chain: MSGSVSGCGSGGCSIVWFRRDLRVEDNPALAAAVRAGPVIALFVWAPEEEGHYHPGRVSRWWLKNSLAQLDSSLRSLGTCLITKRSTDSVASLLDVVKSTGASQIFFNHLYDPLSLVRDHRAKDVLTAQGIAVRSFNADLLYEPWEVTDELGRPFSMFAAFWERCLSMPYDPESPLLPPKKIISGDVSKCVADPLVFEDDSEKGSNALLARAWSPGWSNGDKALTTFINGPLLEYSKNRRKADSATTSFLSPHLHFGEVSVRKVFHLVRIKQVAWANEGNEAGEESVNLFLKSIGLREYSRYISFNHPYSHERPLLGHLKFFPWAVDENYFKAWRQGRTGYPLVDAGMRELAATGWLHDRIRVVVSSFFVKVLQLPWRWGMKYFWDTLLDADLESDALGWQYITGTLPDSREFDRIDNPQFEGYKFDPNGEYVRRWLPELSRLPTDWIHHPWNAPESVLQAAGIELGSNYPLPIVGLDEAKARLHEALSQMWQLEAASRAAIENGSEE
notes: cryptochrome 1 (AtCRY1), Arabidopsis thaliana, PHR domain, residues 1-508; also called CRY1^W352A; source: yeast two-hybrid fusion (yeast Y187)
Regarding B4, the “decrease of Y2H interaction relative to WT” value in [3] was 51%.

B5: CRY1^(PHR R335A) in pGADT7 (AD) (domain or fragment, Arabidopsis thaliana, UniProt Q43125 1-508, looked up)
chain: MSGSVSGCGSGGCSIVWFRRDLRVEDNPALAAAVRAGPVIALFVWAPEEEGHYHPGRVSRWWLKNSLAQLDSSLRSLGTCLITKRSTDSVASLLDVVKSTGASQIFFNHLYDPLSLVRDHRAKDVLTAQGIAVRSFNADLLYEPWEVTDELGRPFSMFAAFWERCLSMPYDPESPLLPPKKIISGDVSKCVADPLVFEDDSEKGSNALLARAWSPGWSNGDKALTTFINGPLLEYSKNRRKADSATTSFLSPHLHFGEVSVRKVFHLVRIKQVAWANEGNEAGEESVNLFLKSIGLREYSRYISFNHPYSHERPLLGHLKFFPWAVDENYFKAWAQGRTGYPLVDAGMRELWATGWLHDRIRVVVSSFFVKVLQLPWRWGMKYFWDTLLDADLESDALGWQYITGTLPDSREFDRIDNPQFEGYKFDPNGEYVRRWLPELSRLPTDWIHHPWNAPESVLQAAGIELGSNYPLPIVGLDEAKARLHEALSQMWQLEAASRAAIENGSEE
notes: as for B3
Regarding B5, the “decrease of Y2H interaction relative to WT” value in assay [3] came to 41%.

B6: CRY1^(PHR R211A) in pGADT7 (AD) (domain or fragment, Arabidopsis thaliana, UniProt Q43125 1-508, looked up)
chain: MSGSVSGCGSGGCSIVWFRRDLRVEDNPALAAAVRAGPVIALFVWAPEEEGHYHPGRVSRWWLKNSLAQLDSSLRSLGTCLITKRSTDSVASLLDVVKSTGASQIFFNHLYDPLSLVRDHRAKDVLTAQGIAVRSFNADLLYEPWEVTDELGRPFSMFAAFWERCLSMPYDPESPLLPPKKIISGDVSKCVADPLVFEDDSEKGSNALLAAAWSPGWSNGDKALTTFINGPLLEYSKNRRKADSATTSFLSPHLHFGEVSVRKVFHLVRIKQVAWANEGNEAGEESVNLFLKSIGLREYSRYISFNHPYSHERPLLGHLKFFPWAVDENYFKAWRQGRTGYPLVDAGMRELWATGWLHDRIRVVVSSFFVKVLQLPWRWGMKYFWDTLLDADLESDALGWQYITGTLPDSREFDRIDNPQFEGYKFDPNGEYVRRWLPELSRLPTDWIHHPWNAPESVLQAAGIELGSNYPLPIVGLDEAKARLHEALSQMWQLEAASRAAIENGSEE
notes: cryptochrome 1 (AtCRY1), Arabidopsis thaliana, PHR domain, residues 1-508; also called CRY1^R211A; source: yeast two-hybrid fusion (yeast Y187)
In the case of B6, in assay [3], the “increase of Miller units relative to WT” value was 27%.
